Source: patent US20240182571A1 (OSE IMMUNOTHERAPEUTICS, published 2024)

Assays:
[1] = target: T1, biotinylated Human PD1 (AcroBiosystems, reference EP-101) (human, UniProt Q15116 25-167, limits assumed, biotinylated); assay: competitive ELISA, PD-L1 immobilised, antibody mixed with biotinylated human PD-1; PD1/PDL1 antagonist activity
T1 construct: also called biotinylated recombinant human PD-1; Biotin-PD-1Fc
Protocol: (§1) A. PD-1 binding ELISA assay. Human recombinant PD-1 (rPD1) protein was immobilized, and antibodies were added at different concentrations. Revelation was performed with an anti-human Fc antibody coupled to peroxidase. Colorimetry was determined at 450 nm using TMB substrate. […] All constructions tested comprise a […] linker between the Fc and IL-7 domain.
Purified antibody (at different concentrations) were mixed with 0.66 μg/ml final (fix concentration) of biotinylated Human PD1 (AcroBiosystems; USA; reference EP-101) to measure competitive binding for 2 h at 37° C.

[2] = target: T2, Recombinant hPD1 (Sino Biologicals, reference 10377-H08H) (human, UniProt Q15116 25-167); assay: ELISA, recombinant human PD-1 immobilised, anti-human Fc peroxidase
T2 construct: Bought reagent, immobilised on plastic; also called Human recombinant PD-1; rPD1
T2 sequence (Q15116 25-167 limits assumed): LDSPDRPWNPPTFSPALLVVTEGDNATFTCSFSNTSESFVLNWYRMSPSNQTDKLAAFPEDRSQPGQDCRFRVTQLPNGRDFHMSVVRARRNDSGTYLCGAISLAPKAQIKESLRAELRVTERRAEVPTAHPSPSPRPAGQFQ
Protocol: as §1
For activity ELISA assay, recombinant hPD1 (Sino Biologicals, Beijing, China; reference 10377-H08H) was immobilized on plastic at 0.5 μg/ml in carbonate buffer (pH9.2) and purified antibody were added to measure binding.

PD-1 expressed on cells [3] = target: T3, PD-1 expressed on cells (UniProt Q15116 25-288); assay: flow cytometry, 1:1 co-culture of U937 PD-1+ and U937 PD-1- cells, detection with anti-human IgG PE, % positive cells
T3 construct: whole, on cells; also called U937 PD-1+ cells; U937 PD-1+ CD127+ cells
T3 sequence (Q15116 25-288): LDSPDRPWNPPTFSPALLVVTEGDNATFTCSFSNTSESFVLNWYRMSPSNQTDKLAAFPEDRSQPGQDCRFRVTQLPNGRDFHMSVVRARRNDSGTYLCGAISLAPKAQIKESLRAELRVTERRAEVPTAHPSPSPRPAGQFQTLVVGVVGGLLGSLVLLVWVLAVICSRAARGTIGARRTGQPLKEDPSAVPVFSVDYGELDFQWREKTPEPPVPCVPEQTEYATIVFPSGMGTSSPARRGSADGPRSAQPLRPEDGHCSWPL

PD-1 expressed on cells [4] = target: T3, PD-1 expressed on cells; assay: flow cytometry (FACs analysis), U937 PD-1+ CD127+ cells co-cultured with U937 PD-1- CD127+ cells, detection with anti-human IgG PE, % cell binding
Protocol: (§2) U937 cells expressing CD127+ or co-expressing CD127+ and PD-1+ cells were stained with a cell proliferation dye (CPDe450 or CPDe670) and co-cultivated at ratio 1:1 prior incubation with different concentrations of anti PD-1 IL-7 bifunctional molecules. Staining with and anti-human IgG PE and pSTAT5 activation was quantified after incubation by flow cytometry. A. EC50 binding (nM) was calculated for each cell type and each construction. B. EC50 pSTAT5 (nM) was calculated for each cell type and each construction.
(§3) Finally, the specific cis-targeting and cis-activity of the different anti PD-1 IL-7 constructions were analyzed in a co-culture assay. U937 PD-1+ CD127+ cells were mixed with PD-1− CD127+ cells (ratio 1:1), then incubated with the different constructions at escalating doses. The binding and the IL-7R signaling (pSTAT5) was quantified by flow cytometry. EC50 (nM) of the binding and the pSTAT5 activation was determined for each construction and for each PD-1+ and PD-1− cell population (FIG. 4A and B).
(§4) U937 transduced with CD127 and PD-1 were mixed with U937 transduced with CD127+ only.

PD-1 expressed on cells [5] = target: T3, PD-1 expressed on cells; assay: flow cytometry, 1:1 co-culture of U937 PD-1+ and U937 PD-1- cells, detection with anti-human IgG PE, % positive cells [middle panel]
PD-1 expressed on cells [6] = target: T3, PD-1 expressed on cells; assay: flow cytometry (FACs analysis), U937 PD-1+ CD127+ cells co-cultured with U937 PD-1- CD127+ cells, detection with anti-human IgG PE, % cell binding; remark: listed apart in the source
Protocol: as §2, §3, §4

T1 sequence (Q15116 25-167 limits assumed): as the sequence (Q15116 25-167 limits assumed) above

Row | EC50 [1] [nM] | EC50 [2] [nM] | EC50 (read off the curve) (PD-1 expressed on cells [3]) [nM] | EC50 (read off the curve) (PD-1 expressed on cells [4]) [nM] | EC50 (read off the curve) (PD-1 expressed on cells [5]) [nM] | EC50 (read off the curve) (PD-1 expressed on cells [6]) [nM] | Binder
1 | 5.01 | 0.238 | ~0.02 | – | – | – | anti PD-1*1 (antibody, human IgG1, kappa, N297A, One-armed control: like construction 3 but without IL-7; Chain A is the Fc chain (knob), chain B the anti PD-1 heavy chain (hole)) DKTHTCPPCPAPELLGGPSVFLFPPKPKDTLMISRTPEVTCVVVDVSHEDPEVKFNWYVDGVEVHNAKTKPREEQYASTYRVVSVLTVLHQDWLNGKEYKCKVSNKALPAPIEKTISKAKGQPREPQVYTLPPCRDELTKNQVSLWCLVKGFYPSDIAVEWESNGQPENNYKTTPPVLDSDGSFFLYSKLTVDKSRWQQGNVFSCSVMHEALHNHYTQKSLSLSPGK heavy: not shown light: DVVMTQSPLSLPVTLGQPASISCRSSQSLVHANTNTYLEWYQQRPGQSPRLLIYKVSNRFSGVPDRFSGSGSGTDFTLKISRVEAEDVGVYYCFQGTHVPNTFGQGTKLEIKRTVAAPSVFIFPPSDEQLKSGTASVVCLLNNFYPREAKVQWKVDNALQSGNSQESVTEQDSKDSTYSLSSTLTLSKADYEKHKVYACEVTHQGLSSPVTKSFNRGEC
2 | – | 0.021 | – | ~0.02 | ~0.005 | ~0.02 | anti PD-1*2 (antibody, human IgG4 S228P, kappa, V domains shown, Anti PD-1 antibody with 2 anti PD-1 arms and no cytokine; also called anti PD-1 alone; anti PD-1 control) VH: QIQLVQSGSELKKPGASVKVSCKASGYTFTHYAMNWVRQAPGQGLEWMGWINTNTGEPTYAQGFTGRFVFSLDTSVSTAYLQISSLKAEDTAVYYCAREREPGMDNWGQGTLVTVSS VL: DVVMTQSPLSLPVTLGQPASISCRSSQSLVHANTNTYLEWYQQRPGQSPRLLIYKVSNRFSGVPDRFSGSGSGTDFTLKISRVEAEDVGVYYCFQGTHVPNTFGQGTKLEIKR
